Experimental data published in PMC11393876 (Cancers, 2024).

Tests used:
Details in all cases: both partners purified
Biotin-hPD-1-mIgG Fc [1] = target: T1, Biotin-hPD-1-mIgG Fc (human, UniProt Q15116, biotin); experiment: ELISA; competitive ELISA; human PD-L2 coated; Biotin-hPD-1-mIgG Fc at 0.025 μg/mL as binder; serial dilutions of P1801 from 0.5 μg/mL as competitor; 25 °C, 2 h
T1 construct: PD-1, human; also called hPD-1-mFc; source: PharmaEssentia, purified fusion protein

human CTLA-4 = target: T2, human CTLA-4 (Homo sapiens, UniProt P16410); experiment: ELISA; direct binding ELISA; antigens coated overnight, blocked with 1% BSA 2 h; P1801 incubated at 25 °C for 1 h; detected with peroxidase goat anti-hIgG Fc
T2 construct: CTLA-4, human; source: bought: Sino Biological (11159-H08H)
T2 sequence (P16410 36-161): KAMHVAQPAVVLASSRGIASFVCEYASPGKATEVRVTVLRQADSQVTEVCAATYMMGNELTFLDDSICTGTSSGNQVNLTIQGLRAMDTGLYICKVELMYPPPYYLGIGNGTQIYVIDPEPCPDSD

mouse PD-1 = target: T3, mouse PD-1 (Mus musculus, UniProt Q02242); experiment: as above
T3 construct: PD-1, mouse; source: bought: Sino Biological (50124-M08H)
T3 sequence (Q02242 25-169): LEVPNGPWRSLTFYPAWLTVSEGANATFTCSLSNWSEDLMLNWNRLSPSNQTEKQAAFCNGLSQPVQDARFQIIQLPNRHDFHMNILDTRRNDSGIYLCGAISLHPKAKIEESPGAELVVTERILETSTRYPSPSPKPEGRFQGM

human PD-L2 = target: T4, human PD-L2 (human, UniProt Q9BQ51); experiment: as above
T4 construct: PD-L2, human; source: bought: Sino Biological (10292-H08H)
T4 sequence (Q9BQ51 20-220): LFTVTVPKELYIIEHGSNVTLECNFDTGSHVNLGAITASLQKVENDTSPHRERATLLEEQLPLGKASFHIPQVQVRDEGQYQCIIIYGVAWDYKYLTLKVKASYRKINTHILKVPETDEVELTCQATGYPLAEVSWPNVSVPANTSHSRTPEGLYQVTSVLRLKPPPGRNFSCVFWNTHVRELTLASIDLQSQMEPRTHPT

cynomolgus PD-1 = target: T5, cynomolgus PD-1 (Macaca fascicularis (cynomolgus), UniProt B0LAJ3); experiment: as above
T5 construct: PD-1, cynomolgus monkey, GenBank NP_001271065.1; source: bought: Sino Biological (90311-C08H)

human PD-1 [2] = target: T6, human PD-1 (Homo sapiens, UniProt Q15116); experiment: as above
T6 construct: programmed cell death 1 (PD-1), human; also called PD-1/His antigen; human PD-1 proteins; source: bought: Sino Biological (HPLC-10377-H08H) for the ELISA
T6 sequence (Q15116 25-170): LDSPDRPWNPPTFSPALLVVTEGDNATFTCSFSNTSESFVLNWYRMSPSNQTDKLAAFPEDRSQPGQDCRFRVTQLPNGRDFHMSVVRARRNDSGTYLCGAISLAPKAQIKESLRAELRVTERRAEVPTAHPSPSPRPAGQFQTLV

human PD-L1 = target: T7, human PD-L1 (human, UniProt Q9NZQ7); experiment: as above
T7 construct: programmed death-ligand 1 (PD-L1), human; also called programmed death-ligand 1; source: bought: Sino Biological (10084-H08H)
T7 sequence (Q9NZQ7 19-238): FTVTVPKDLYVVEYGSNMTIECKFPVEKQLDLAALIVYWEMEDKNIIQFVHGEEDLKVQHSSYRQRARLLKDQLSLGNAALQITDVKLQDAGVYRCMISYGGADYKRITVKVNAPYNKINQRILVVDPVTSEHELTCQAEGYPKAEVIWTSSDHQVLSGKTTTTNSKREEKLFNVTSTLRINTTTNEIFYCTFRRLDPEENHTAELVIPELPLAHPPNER

human CD28 = target: T8, human CD28 (Homo sapiens, UniProt P10747); experiment: as above
T8 construct: CD28, human; source: bought: Sino Biological (11524-HCCH)
T8 sequence (P10747 19-152): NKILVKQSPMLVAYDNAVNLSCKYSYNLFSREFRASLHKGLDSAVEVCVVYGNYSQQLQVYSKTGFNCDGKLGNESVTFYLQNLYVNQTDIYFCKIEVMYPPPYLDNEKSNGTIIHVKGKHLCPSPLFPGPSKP

Biotin-hPD-1-mIgG Fc [3] = target: T1, Biotin-hPD-1-mIgG Fc; experiment: ELISA; competitive ELISA; human PD-L1 coated; Biotin-hPD-1-mIgG Fc at 0.025 μg/mL as binder; serial dilutions of P1801 from 0.5 μg/mL as competitor; 25 °C, 2 h
human PD-1 [4] = target: T6, human PD-1; experiment: SPR; P1801 (2 µg/mL) captured on the surface; human PD-1 proteins injected; 25 °C; HBS-EP (10 mM HEPES, 150 mM NaCl, 3 mM EDTA, 0.05% Tween 20, pH 7.4)

T1 sequence (Q15116 25-170): as the sequence (Q15116 25-170) above

IC50 (Biotin-hPD-1-mIgG Fc [1]): 0.9 nM
binding result (human CTLA-4): no binding
binding result (mouse PD-1): no binding
binding result (human PD-L2): no binding
EC50 (cynomolgus PD-1): 0.44 nM
EC50 (human PD-1 [2]): 0.57 nM
binding result (human PD-L1): no binding
binding result (human CD28): no binding
IC50 (Biotin-hPD-1-mIgG Fc [3]): 0.57 nM
Kd (human PD-1 [4]): 2.5 nM
B1: P1801 (antibody, V domains shown)
VH: EVQLVESGGGLVQPGGSLRLSCAASGFTFSSYDMSWVRQAPGKGLEWVATITGGGSYTYYPDSVKGRFTISRDNAKNSLYLQMNSLRAEDTAVYYCASPYLNYFDYWGQGTLVTVSS
VL: EIVLTQSPATLSLSPGERATLSCRASQSISNNLHWYQQKPGQAPRLLIYYASQSISGIPARFSGSGSGTDFTLTISSLEPEDFAVYYCQQSNSWPLTFGQGTKLEIK
notes: 464 residues; mouse CDR1-3 in a human IgG4 framework with the S228P mutation; kappa light chain, 234 residues; mouse CDRs in a human framework; IgG4 kappa, S228P; humanized from murine clone PD-1RB-M59; The printed lengths (464 and 234 residues) may include signal peptides; Molecular weight 146,799 Da; also called anti-human PD-1 IgG4 humanized monoclonal antibody; source: CHO cell expression …
